The record followed here is patent US20230257479A1 (Genmab, published 2023).

Assay in all cases: alanine scanning, flow cytometry on HEK293 cells, normalised to bsIgG1-5T4-A1-F405Lxb12-FEAR-FITC
For orientation: Flow cytometry measures light scatter and fluorescence of single cells or particles in a stream.

Experiment [1] addresses T1, human 5T4 with L309 mutated to alanine, on HEK293 cells (human, UniProt Q13641 32-420).
T1 sequence: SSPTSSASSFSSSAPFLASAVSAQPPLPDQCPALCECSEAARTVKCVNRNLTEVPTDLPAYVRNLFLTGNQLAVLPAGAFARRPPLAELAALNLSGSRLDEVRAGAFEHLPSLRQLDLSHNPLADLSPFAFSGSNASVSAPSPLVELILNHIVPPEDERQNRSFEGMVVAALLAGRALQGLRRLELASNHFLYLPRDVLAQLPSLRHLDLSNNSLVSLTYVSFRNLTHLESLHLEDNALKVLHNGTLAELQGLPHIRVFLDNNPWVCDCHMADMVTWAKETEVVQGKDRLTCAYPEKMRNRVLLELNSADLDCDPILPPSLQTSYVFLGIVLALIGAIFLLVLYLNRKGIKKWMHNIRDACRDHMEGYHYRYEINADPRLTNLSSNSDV
Protocol: (§1) One day post transfection, the cells were harvested. […] Subsequently, cells were washed twice by centrifugation using 150-180 µL FACS buffer. Cells were resuspended in 30 µL FACS buffer and stored at 4° C. until analysis by flow cytometry using an iQue screener (Intellicyt Corporation).

Experiment [2] addresses T2, human 5T4 with P326 mutated to alanine, on HEK293 cells (human, UniProt Q13641 32-420).
T2 sequence: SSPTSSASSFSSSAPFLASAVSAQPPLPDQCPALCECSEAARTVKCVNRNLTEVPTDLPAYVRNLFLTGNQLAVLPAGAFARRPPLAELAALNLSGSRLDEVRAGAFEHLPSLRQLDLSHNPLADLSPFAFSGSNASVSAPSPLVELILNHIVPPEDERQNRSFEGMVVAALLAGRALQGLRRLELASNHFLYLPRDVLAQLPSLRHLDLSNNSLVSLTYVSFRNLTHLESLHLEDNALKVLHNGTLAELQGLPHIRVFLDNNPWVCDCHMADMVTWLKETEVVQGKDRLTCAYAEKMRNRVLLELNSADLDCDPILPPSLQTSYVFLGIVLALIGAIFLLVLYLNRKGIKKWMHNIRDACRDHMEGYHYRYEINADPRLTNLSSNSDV
Protocol: as §1

Experiment [3] has as its target T3, human 5T4 with L281 mutated to alanine, on HEK293 cells (human, UniProt Q13641 32-420).
T3 sequence: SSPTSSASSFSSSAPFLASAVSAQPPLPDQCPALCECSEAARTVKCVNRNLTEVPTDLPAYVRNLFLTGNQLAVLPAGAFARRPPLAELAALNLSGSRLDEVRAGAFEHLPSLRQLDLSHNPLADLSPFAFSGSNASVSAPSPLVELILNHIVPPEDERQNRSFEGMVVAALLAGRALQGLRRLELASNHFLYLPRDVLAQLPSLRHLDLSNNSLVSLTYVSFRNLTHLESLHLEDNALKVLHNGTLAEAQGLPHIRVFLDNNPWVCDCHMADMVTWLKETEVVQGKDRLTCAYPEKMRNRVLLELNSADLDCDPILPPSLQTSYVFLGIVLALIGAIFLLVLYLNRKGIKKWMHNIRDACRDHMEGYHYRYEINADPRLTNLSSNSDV
Protocol: as §1

B1: bsIgG1-b12-FEALx5T4-226-FEAR-FITC (bispecific antibody, V domains shown)
VH 1: QVQLVQSGAEVKKPGASVKVSCQASGYRFSNFVIHWVRQAPGQRFEWMGWINPYNGNKEFSAKFQDRVTFTADTSANTAYMELRSLRSADTAVYYCARVGPYSWDDSPQDNYYMDVWGKGTTVIVSS
VL 1: EIVLTQSPGTLSLSPGERATFSCRSSHSIRSRRVAWYQHKPGQAPRLVIHGVSNRASGISDRFSGSGSGTDFTLTITRVEPEDFALYYCQVYGASSYTFGQGTKLERK
VH 2: QVQLQQWGAGLLKPSETLSLTCAVYGGSFSGYYWSWIRQPPGKGLEWIGEIDHSGSTNYNPSLKSRVTISVDTSKNQFSLKLSSVTAADTAVYYCAAWFGELWDYYYGMDVWGQGTTVTVSS
VL 2: EIVLTQSPATLSLSPGERATLSCRASQSVSSFLAWYQQKPGQAPRLLIYDASNRATGIPARFSGSGSGTDFTLTISSLEPEDFAVYYCQQRSNWPLTFGQGTRLEIK
notes: b12 arm IgG1 FEAL, 5T4 arm IgG1 FEAR
Take B1: the figures for the “Z-score (fold change) of binding” value in experiment [1], in experiment [2] and in experiment [3] were -1.63, -1.67 and -1.65, respectively.
